Data on 125 sequences can be found in the supplement of paper PMC9112550, “Optimization of the antimicrobial peptide Bac7 by deep mutational scanning” (BMC Biology, 2022).

In the data set the test system is Escherichia coli TOP10. Put plainly: shrunken log2 fold change of peptide-encoding DNA abundance (4.5 h post-induction vs induction); higher = less antimicrobial activity (less host growth inhibition). The note with it: time post-induction: 4.5 h; library: site-saturation at positions 5, 18, 19, 20.
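Further: peptides expressed intracellularly from a pBAD plasmid library in pooled LB shake-flask culture, induced with 0.3% L-arabinose, DNA abundance read by NGS, three biological replicates, DESeq2 with apeglm shrinkage.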

As for RRIRQRPPRLPRPRPRPPSLPRP, the “shrunken log2 fold change” value is 0.149. To RRIRPRPPRLPRPRPRPADRPRP belongs 0.408. Next, RRIRHRPPRLPRPRPRPVLRPRP: -0.0204; RRIRYRPPRLPRPRPRPAGFPRP: -0.0806.

RRIRDRPPRLPRPRPRPVGFPRP: the “shrunken log2 fold change” value was found to be 0.859. To RRIRYRPPRLPRPRPRPATQPRP belongs -0.163; to RRIRSRPPRLPRPRPRPRRCPRP, 0.359. To RRIRLRPPRLPRPRPRPVRCPRP belongs 0.0127. Next, RRIRIRPPRLPRPRPRPALKPRP: -0.0298. In the case of RRIRGRPPRLPRPRPRPTMMPRP, the “shrunken log2 fold change” value is 0.541. In the case of RRIRIRPPRLPRPRPRPAVRPRP, the “shrunken log2 fold change” value is 0.445. Next, RRIRMRPPRLPRPRPRPPKVPRP: 0.272. Turning to RRIRSRPPRLPRPRPRPVPWPRP, the “shrunken log2 fold change” value is 0.212.

Turning to RRIRRRPPRLPRPRPRPPCEPRP, the “shrunken log2 fold change” value was determined as 0.195.

For the sequence RRIRNRPPRLPRPRPRPEHYPRP, the “shrunken log2 fold change” value was -0.38.

Turning to RRIRIRPPRLPRPRPRPIKQPRP, the “shrunken log2 fold change” value was found to be 0.00391.

As to RRIRRRPPRLPRPRPRPGNPPRP, the “shrunken log2 fold change” value was 0.608. Next, RRIRIRPPRLPRPRPRPASYPRP: -0.0337. To RRIRERPPRLPRPRPRPNSDPRP belongs -0.142; to RRIRSRPPRLPRPRPRPAMKPRP, 0.00274. To RRIRCRPPRLPRPRPRPRAQPRP belongs 0.4; to RRIRTRPPRLPRPRPRPQLKPRP, 0.0828; to RRIRCRPPRLPRPRPRPWDRPRP, -0.608. Consider RRIRSRPPRLPRPRPRPTQWPRP, for which the “shrunken log2 fold change” value is 0.354. Next, RRIRVRPPRLPRPRPRPLNTPRP: -0.224.

In the case of RRIRSRPPRLPRPRPRPERTPRP, the “shrunken log2 fold change” value came out at 0.0493. Next, RRIRWRPPRLPRPRPRPNCMPRP: -0.302; RRIRIRPPRLPRPRPRPGSHPRP: 0.141. For the sequence RRIRDRPPRLPRPRPRPDMFPRP, the “shrunken log2 fold change” value amounted to 0.0667. Next, RRIRIRPPRLPRPRPRPIFYPRP: -0.775. With RRIRQRPPRLPRPRPRPTQNPRP, the “shrunken log2 fold change” value came out at 0.627.

With RRIRLRPPRLPRPRPRPPKCPRP, the “shrunken log2 fold change” value was 0.213. Take RRIRARPPRLPRPRPRPFMDPRP: the “shrunken log2 fold change” value was found to be 0.00846. To RRIRNRPPRLPRPRPRPEYWPRP belongs -0.103; to RRIRYRPPRLPRPRPRPDVTPRP, -0.00733; to RRIRNRPPRLPRPRPRPPNTPRP, -0.0466.

Consider RRIRYRPPRLPRPRPRPCRFPRP, for which the “shrunken log2 fold change” value was -0.241. To RRIRDRPPRLPRPRPRPSHLPRP belongs -0.248; to RRIRCRPPRLPRPRPRPWPNPRP, -0.279; to RRIRTRPPRLPRPRPRPKWRPRP, 0.394.

Regarding RRIRRRPPRLPRPRPRPQVWPRP, the “shrunken log2 fold change” value worked out at 0.409. Next, RRIRFRPPRLPRPRPRPDDAPRP: 0.133; RRIRQRPPRLPRPRPRPDSLPRP: -0.0756; RRIRSRPPRLPRPRPRPFKDPRP: -0.11.

For RRIRVRPPRLPRPRPRPPNVPRP, the “shrunken log2 fold change” value was -0.0619. Next, RRIRPRPPRLPRPRPRPRQQPRP: 0.13. To RRIRLRPPRLPRPRPRPLHHPRP belongs -0.533. To RRIRARPPRLPRPRPRPTLYPRP belongs -0.034. As for RRIRRRPPRLPRPRPRPCNGPRP, the “shrunken log2 fold change” value is -0.199. Next, RRIRPRPPRLPRPRPRPHYAPRP: -0.15; RRIRHRPPRLPRPRPRPGFKPRP: -0.206; RRIRYRPPRLPRPRPRPGSEPRP: -0.202. Next, RRIRYRPPRLPRPRPRPGWKPRP: 0.00711; RRIRWRPPRLPRPRPRPLNPPRP: -0.0128. Next, RRIRVRPPRLPRPRPRPRTWPRP: 0.0366; RRIRRRPPRLPRPRPRPCCPPRP: 0.467; RRIRFRPPRLPRPRPRPHEHPRP: -0.135. As for RRIRGRPPRLPRPRPRPKPGPRP, the “shrunken log2 fold change” value worked out at 1.07.

Take RRIRIRPPRLPRPRPRPNWWPRP: the “shrunken log2 fold change” value turned out to be 0.159. To RRIRIRPPRLPRPRPRPCQHPRP belongs -0.183; to RRIRPRPPRLPRPRPRPNWEPRP, 0.0541; to RRIRDRPPRLPRPRPRPSKDPRP, -0.242. Next, RRIRTRPPRLPRPRPRPGTEPRP: 0.0787. Next, RRIRFRPPRLPRPRPRPSRLPRP: 0.014; RRIRQRPPRLPRPRPRPVIWPRP: 0.124; RRIRKRPPRLPRPRPRPSFPPRP: -0.0425.

With RRIRKRPPRLPRPRPRPWFLPRP, the “shrunken log2 fold change” value was -0.157. To RRIRKRPPRLPRPRPRPEMQPRP belongs 1.92; to RRIRYRPPRLPRPRPRPQCNPRP, -0.269; to RRIRNRPPRLPRPRPRPILAPRP, -0.264. Turning to RRIRLRPPRLPRPRPRPWAKPRP, the “shrunken log2 fold change” value was 0.173. On to RRIRKRPPRLPRPRPRPPTNPRP, for which the “shrunken log2 fold change” value was found to be 0.654.

On to RRIRMRPPRLPRPRPRPLAFPRP, for which the “shrunken log2 fold change” value was 0.52. Next, RRIRPRPPRLPRPRPRPTHSPRP: 0.185; RRIRSRPPRLPRPRPRPDGVPRP: -0.115. Next, RRIRMRPPRLPRPRPRPRCWPRP: 0.666. Consider RRIRYRPPRLPRPRPRPPYHPRP, for which the “shrunken log2 fold change” value is -0.82.

On to RRIRMRPPRLPRPRPRPTVTPRP, for which the “shrunken log2 fold change” value worked out at 0.307. In the case of RRIRIRPPRLPRPRPRPPRNPRP, the “shrunken log2 fold change” value was 0.217. To RRIRCRPPRLPRPRPRPQLPPRP belongs -0.104.

Regarding RRIRRRPPRLPRPRPRPVVHPRP, the “shrunken log2 fold change” value is -0.157. Next, RRIRVRPPRLPRPRPRPLNMPRP: -1.14. To RRIRIRPPRLPRPRPRPSCQPRP belongs -0.0446. Next, RRIRKRPPRLPRPRPRPDIPPRP: -0.109; RRIRARPPRLPRPRPRPMCQPRP: 0.13. For the sequence RRIRMRPPRLPRPRPRPEWLPRP, the “shrunken log2 fold change” value is 0.056.

On to RRIRERPPRLPRPRPRPKNIPRP, for which the “shrunken log2 fold change” value is -0.723. Next, RRIRCRPPRLPRPRPRPKYFPRP: -0.501. To RRIRVRPPRLPRPRPRPWPGPRP belongs 0.101.

With RRIRFRPPRLPRPRPRPTMWPRP, the “shrunken log2 fold change” value stood at 0.0084. Next, RRIRQRPPRLPRPRPRPLHGPRP: 0.0407; RRIRVRPPRLPRPRPRPTFKPRP: -0.152.

Take RRIRQRPPRLPRPRPRPCVMPRP: the “shrunken log2 fold change” value is -0.149. As for RRIRQRPPRLPRPRPRPVLQPRP, the “shrunken log2 fold change” value is -0.107.

On to RRIRQRPPRLPRPRPRPRNDPRP, for which the “shrunken log2 fold change” value was -0.485. For RRIRFRPPRLPRPRPRPIHPPRP, the “shrunken log2 fold change” value was -0.385. On to RRIRRRPPRLPRPRPRPCHSPRP, for which the “shrunken log2 fold change” value came to 0.00408.

For RRIRDRPPRLPRPRPRPPAAPRP, the “shrunken log2 fold change” value is 1.13.

For the sequence RRIRDRPPRLPRPRPRPHETPRP, the “shrunken log2 fold change” value is -0.0736. To RRIRMRPPRLPRPRPRPRAAPRP belongs 3.2; to RRIRYRPPRLPRPRPRPRHDPRP, -0.237. Next, RRIRMRPPRLPRPRPRPCHAPRP: -0.00133; RRIRDRPPRLPRPRPRPGWLPRP: 0.127; RRIRDRPPRLPRPRPRPKFMPRP: -0.191. As for RRIRNRPPRLPRPRPRPGKWPRP, the “shrunken log2 fold change” value is -0.0427. Next, RRIRFRPPRLPRPRPRPIMIPRP: -0.113; RRIRSRPPRLPRPRPRPERMPRP: 0.263; RRIRNRPPRLPRPRPRPTKNPRP: -0.0348. Take RRIRGRPPRLPRPRPRPHVMPRP: the “shrunken log2 fold change” value came out at 0.0731.

As for RRIRNRPPRLPRPRPRPELGPRP, the “shrunken log2 fold change” value was 0.193.

Turning to RRIRRRPPRLPRPRPRPAGDPRP, the “shrunken log2 fold change” value was determined as 0.563. To RRIRWRPPRLPRPRPRPERRPRP belongs 0.327; to RRIRYRPPRLPRPRPRPRSRPRP, 0.07; to RRIRHRPPRLPRPRPRPIQAPRP, -0.0107. Next, RRIRVRPPRLPRPRPRPWTLPRP: 0.113; RRIRKRPPRLPRPRPRPPFMPRP: 0.517; RRIRMRPPRLPRPRPRPMAMPRP: 0.0319. For RRIRRRPPRLPRPRPRPYEFPRP, the “shrunken log2 fold change” value was -0.187. To RRIRVRPPRLPRPRPRPTITPRP belongs -0.178; to RRIRMRPPRLPRPRPRPTIWPRP, 0.52. Next, RRIRLRPPRLPRPRPRPLDNPRP: -0.293; RRIRKRPPRLPRPRPRPYGCPRP: -0.00151.

As to RRIRRRPPRLPRPRPRPFQEPRP, the “shrunken log2 fold change” value was -0.264. Take RRIRHRPPRLPRPRPRPVNSPRP: the “shrunken log2 fold change” value was found to be 0.158. RRIRRRPPRLPRPRPRPLVWPRP: the “shrunken log2 fold change” value was 0.529.
